Data from paper PMC5974088 (2018).
Where no end group is shown, it is not given here. Me2 = dimethyl-lysine

What was measured:
Experiment in all cases: ITC
53BP1 Tudor Y1502A = 53BP1 Tudor Y1502A (H. sapiens, UniProt Q12888 1484-1603, Y1502A)
53BP1 Tudor W1495A = 53BP1 Tudor W1495A (H. sapiens, UniProt Q12888 1484-1603, W1495A)
53BP1 Tudor Y1523A = 53BP1 Tudor Y1523A (H. sapiens, UniProt Q12888 1484-1603, Y1523A)
53BP1 Tudor Y1523S = 53BP1 Tudor Y1523S (H. sapiens, UniProt Q12888 1484-1603, Y1523S)
53BP1 Tudor D1521A = 53BP1 Tudor D1521A (H. sapiens, UniProt Q12888 1484-1603, D1521A)
53BP1 Tudor Y1500A = 53BP1 Tudor Y1500A (H. sapiens, UniProt Q12888 1484-1603, Y1500A)
[1] = target: T1, 53BP1 tandem Tudor domain (1484-1603) (H. sapiens, UniProt Q12888 1484-1603)
T1 chain: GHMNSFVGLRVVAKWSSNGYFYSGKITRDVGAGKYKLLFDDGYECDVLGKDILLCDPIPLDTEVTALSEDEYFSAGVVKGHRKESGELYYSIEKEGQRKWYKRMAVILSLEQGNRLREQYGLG

53BP1 Tudor Y1502A, sequence (Q12888 other isoform, or with tags, fused parts or gaps Y1502A | Y1502A): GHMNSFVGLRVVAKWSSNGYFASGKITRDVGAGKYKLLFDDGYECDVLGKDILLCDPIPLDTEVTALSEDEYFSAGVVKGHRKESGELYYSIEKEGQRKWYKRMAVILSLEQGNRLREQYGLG
53BP1 Tudor W1495A, sequence (Q12888 other isoform, or with tags, fused parts or gaps W1495A | W1495A): as the sequence (Q12888 other isoform, or with tags, fused parts or gaps Y1502A | Y1502A) above, with W15A, A22Y counted along it
53BP1 Tudor D1521A, sequence (Q12888 other isoform, or with tags, fused parts or gaps D1521A | D1521A): as the sequence (Q12888 other isoform, or with tags, fused parts or gaps Y1502A | Y1502A) above, with A22Y, D41A counted along it
53BP1 Tudor Y1500A, sequence (Q12888 other isoform, or with tags, fused parts or gaps Y1500A | Y1500A): as the sequence (Q12888 other isoform, or with tags, fused parts or gaps Y1502A | Y1502A) above, with Y20A, A22Y counted along it

Kd (53BP1 Tudor Y1502A): 151 µM | Kd (53BP1 Tudor W1495A): > 1500 µM | Kd (53BP1 Tudor Y1523A): 7.8 µM | Kd (53BP1 Tudor Y1523S): 65.8 µM | Kd (53BP1 Tudor D1521A): > 1500 µM | Kd (53BP1 Tudor Y1500A): 163 µM | Kd [1]: 19.7 µM
Binder: KRHRK(Me2)VLRDN [H4K20me2]
